How the values were obtained:
[1] = target: T1, recombinant HLA-A2.1 protein with β2-microglobulin (human); experiment: cell free competition assay: inhibition of binding of fluorescent [..] to recombinant HLA-A2.1 and β2-microglobulin, gel filtration, 4 experiments; conditions: remark: other sources report otherwise
[2] = target: T1, recombinant HLA-A2.1 protein with …; experiment: cell free HLA-A2.1 peptide binding (competition) assay, HA-1^R against HA-1^H; conditions: remark: other sources report otherwise

IC50 [1]	fold lower binding affinity against the HA-1^H peptide [2]	Binder
30 nM		VLHDDLLEA [HA-1^H peptide … (minor histocompatibility antigen HA-1 nonapeptide, synthetic)]
365 nM	10 fold	VLRDDLLEA [HA-1^R peptide … (allelic counterpart of HA-1, synthetic)]

From patent publication US20050233350A1
